Measured values as given in the supplement of paper PMC7877785.
± gives the uncertainty stated by the source.

Assay: self-splicing fitness, log relative to wild type (ln ratio); higher = more splicing; Tetrahymena group I intron in knt gene, E. coli kanamycin selection, DiMSum; sequences stand for … in CUCUCU…GGAGGGAAAAGUUAUCAGGCAUGCACCUGGUAGCUAGUCUUUAAACCAAUAGAUUGCAUCGGUUUAAAAGGCAAGACCGUCAAAUUGCGGGAAAGGGGUCAACAGCCGUUCAGUACCAAGUCUCAGGGGAAACUUUGAGAUGGCCUUGCAAAGGGUAUGGUAAUAAGCUGACGGACAUGGUCCUAACCACGCAGCCAAGUCCUAAGUCAACAGAUCUUCUGUUGAUAUGGAUGCAGUUCACAGACUAAAUGUCGGUCGGGGAAGAUGUAUUCUUCUCAUAAGAUAUAGUCGGACCUCUCCUUAAUGGGAGCUAGCGGAUGAAGUGAUGCAACACUGGAGCCGCUGGGAACUAAUUUGUAUGCGAAAGUAUAUUGAUUAGUUUUGGAGUACUCGUGGUCG
Summary of the method: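 Fitness was computed with DiMSum as the error-weighted combination of replicate fold changes, kanamycin versus none, each normalised to wild type. The library randomised all eight intron nucleotides of the P1ex region, with the intron placed in the knt kanamycin-resistance gene on pET-22b(+) in E. coli BL21(DE3). Six replicate transformations were grown overnight at 37°C or 30°C on LB agar with or without 25 μg/mL kanamycin, plus 100 μg/mL carbenicillin, 50 μM IPTG and 0.2% rhamnose. Pooled colonies were amplicon-sequenced on an Illumina HiSeq 2500.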

Sequence | self-splicing fitness (ln) (30 °C) | self-splicing fitness (ln) (37 °C)
UGCAAGCAAUAUUACGGAUA | -1.68 ± 0.11 | -0.698 ± 0.12
UGCAAGCAAUAUUACGGCCA | -0.252 ± 0.08 | 1.07 ± 0.14
UGCAAGCAAUAUUACGGCUG | -2.12 ± 0.14 | -1.14 ± 0.18
UGCAAGCAAUAUUACGGUUU | -2.53 ± 0.071 | -1.28 ± 0.071
UGCAAGCAAUAUUACGUAAA | -1.9 ± 0.087 | -1.01 ± 0.12
UGCAAGCAAUAUUACGUAAC | -4.96 ± 0.38 | -0.276 ± 0.14
UGCAAGCAAUAUUACGUACU | -0.936 ± 0.13 | 0.0223 ± 0.17
UGCAAGCAAUAUUACGUCAG | -1.98 ± 0.088 | -0.64 ± 0.087
UGCAAGCAAUAUUACGUGGG | -3.73 ± 0.17 | -2.93 ± 0.19
UGCCAGCAAUAUUACGACAU | -3.366 ± 0.021 | -1.9 ± 0.035
UGCCAGCAAUAUUACGACGC | -3.03 ± 0.22 | -1.68 ± 0.25
UGCCAGCAAUAUUACGACGG | -3.23 ± 0.12 | -1.42 ± 0.13
UGCCAGCAAUAUUACGACUG | -2.79 ± 0.12 | -2.14 ± 0.13
UGCCAGCAAUAUUACGAGAA | – | -0.955 ± 0.25
UGCCAGCAAUAUUACGAGAC | -3.05 ± 0.2 | -2.05 ± 0.26
UGCCAGCAAUAUUACGAGCC | -0.839 ± 0.087 | 0.369 ± 0.15
UGCCAGCAAUAUUACGCAAA | -2.41 ± 0.19 | -1.5 ± 0.17
UGCCAGCAAUAUUACGCAUA | -1.67 ± 0.088 | -1.26 ± 0.087
UGCCAGCAAUAUUACGCAUC | -3.52 ± 0.25 | -2.2 ± 0.2
UGCCAGCAAUAUUACGCCAA | -1.24 ± 0.15 | -1.8 ± 0.21
UGCCAGCAAUAUUACGCGGU | -2.55 ± 0.3 | -2.45 ± 0.25
UGCCAGCAAUAUUACGCUAG | -4.69 ± 0.39 | -1.35 ± 0.22
UGCCAGCAAUAUUACGGAUG | -1.21 ± 0.093 | -0.248 ± 0.12
UGCCAGCAAUAUUACGGCUG | -3.47 ± 0.15 | -2.17 ± 0.16
UGCCAGCAAUAUUACGGUCG | -1.14 ± 0.068 | -0.0276 ± 0.075

Sequence | self-splicing fitness (ln) (30 °C) | self-splicing fitness (ln) (37 °C)
UGCCAGCAAUAUUACGGUGC | -4.01 ± 0.18 | -2.14 ± 0.21
UGCCAGCAAUAUUACGGUUA | -0.355 ± 0.059 | 0.213 ± 0.066
UGCCAGCAAUAUUACGUACU | 0.158 ± 0.14 | -1.19 ± 0.19
UGCGAGCAAUAUUACGAACA | -1.47 ± 0.14 | 0.122 ± 0.18
UGCGAGCAAUAUUACGACGG | -1.41 ± 0.15 | -0.347 ± 0.16
UGCGAGCAAUAUUACGCAGA | -3.13 ± 0.37 | -1.84 ± 0.38
UGCGAGCAAUAUUACGCAGG | -4.38 ± 0.46 | -2.18 ± 0.28
UGCGAGCAAUAUUACGCAGU | – | -4.06 ± 0.39
UGCGAGCAAUAUUACGCCUA | -2.48 ± 0.19 | -0.762 ± 0.16
UGCGAGCAAUAUUACGCUGC | -3.09 ± 0.25 | -2.31 ± 0.29
UGCGAGCAAUAUUACGCUUC | -3.96 ± 0.39 | -3.67 ± 0.39
UGCGAGCAAUAUUACGGACA | -0.643 ± 0.14 | 0.226 ± 0.2
UGCGAGCAAUAUUACGUACA | -2.18 ± 0.2 | 0.427 ± 0.21
UGCGAGCAAUAUUACGUAUG | -3.11 ± 0.16 | -2.29 ± 0.21
UGCGAGCAAUAUUACGUCUC | -0.82 ± 0.28 | –
UGCGAGCAAUAUUACGUGUG | -2.78 ± 0.18 | -2.15 ± 0.15
UGCUAGCAAUAUUACGAAAA | -2.16 ± 0.15 | -1.72 ± 0.15
UGCUAGCAAUAUUACGAACU | -1.12 ± 0.15 | -0.251 ± 0.15
UGCUAGCAAUAUUACGAGUU | -1.64 ± 0.11 | 0.518 ± 0.12
UGCUAGCAAUAUUACGAUCA | 0.384 ± 0.07 | 0.522 ± 0.094
UGCUAGCAAUAUUACGAUGC | -4.2 ± 0.34 | –
UGCUAGCAAUAUUACGAUGU | -4.19 ± 0.46 | -2.59 ± 0.38
UGCUAGCAAUAUUACGCAAU | -3.02 ± 0.3 | -2.31 ± 0.29
UGCUAGCAAUAUUACGCACA | -1.12 ± 0.13 | 0.22 ± 0.11
UGCUAGCAAUAUUACGCAUC | -3.95 ± 0.21 | -2.45 ± 0.17

Sequence | self-splicing fitness (ln) (30 °C) | self-splicing fitness (ln) (37 °C)
UGCUAGCAAUAUUACGCAUG | -3.03 ± 0.34 | -0.445 ± 0.19
UGCUAGCAAUAUUACGCGAU | -4.01 ± 0.39 | -1.03 ± 0.15
UGCUAGCAAUAUUACGCGCA | -1.97 ± 0.23 | -0.803 ± 0.2
UGCUAGCAAUAUUACGCUAG | -2.28 ± 0.22 | -2.65 ± 0.34
UGCUAGCAAUAUUACGCUCA | -0.263 ± 0.15 | 0.646 ± 0.16
UGCUAGCAAUAUUACGGAAC | -1.04 ± 0.5 | –
UGCUAGCAAUAUUACGGCAC | -3.7 ± 0.42 | -2.19 ± 0.39
UGCUAGCAAUAUUACGGUCA | 0.0813 ± 0.11 | 0.529 ± 0.13
UGCUAGCAAUAUUACGGUGC | -3.92 ± 0.27 | -2.38 ± 0.26
UGCUAGCAAUAUUACGUACA | 0.0476 ± 0.1 | 0.533 ± 0.17
UGCUAGCAAUAUUACGUAUU | -3.06 ± 0.18 | -1.72 ± 0.24
UGCUAGCAAUAUUACGUCAA | -1.87 ± 0.13 | -1.13 ± 0.12
UGCUAGCAAUAUUACGUGCA | -2.54 ± 0.32 | -1.99 ± 0.28
UGCUAGCAAUAUUACGUGGU | -3.36 ± 0.22 | -2.13 ± 0.24
UGGAAGCAAUAUUACGAACA | -0.687 ± 0.13 | -0.937 ± 0.17
UGGAAGCAAUAUUACGAAUA | 0.136 ± 0.41 | -0.685 ± 0.28
UGGAAGCAAUAUUACGACGA | 0.0371 ± 0.18 | -0.862 ± 0.15
UGGAAGCAAUAUUACGAGCU | -1.95 ± 0.16 | -0.801 ± 0.15
UGGAAGCAAUAUUACGAUAU | -2.59 ± 0.18 | -2.39 ± 0.21
UGGAAGCAAUAUUACGAUGU | -1.75 ± 0.21 | -2 ± 0.22
UGGAAGCAAUAUUACGCAGU | -2.85 ± 0.4 | -1.6 ± 0.18
UGGAAGCAAUAUUACGCCAU | -3.64 ± 0.28 | -2.07 ± 0.36
UGGAAGCAAUAUUACGCCCU | -0.2 ± 0.14 | -0.0341 ± 0.18
UGGAAGCAAUAUUACGCGAC | -2.77 ± 0.37 | –
UGGAAGCAAUAUUACGCGCC | -3.22 ± 0.32 | -1.54 ± 0.31

Sequence | self-splicing fitness (ln) (30 °C) | self-splicing fitness (ln) (37 °C)
UGGAAGCAAUAUUACGCUGA | – | -0.713 ± 0.4
UGGAAGCAAUAUUACGGAGA | -2.7 ± 0.22 | -1.31 ± 0.13
UGGAAGCAAUAUUACGGAUA | -0.862 ± 0.084 | -1.04 ± 0.088
UGGAAGCAAUAUUACGGGAU | -1.89 ± 0.17 | -2.46 ± 0.28
UGGAAGCAAUAUUACGGUCU | -1.94 ± 0.14 | 0.0438 ± 0.16
UGGAAGCAAUAUUACGUCGA | -1.02 ± 0.072 | -0.272 ± 0.089
UGGAAGCAAUAUUACGUCGU | -2.12 ± 0.18 | -2.19 ± 0.25
UGGAAGCAAUAUUACGUCUG | -2.56 ± 0.25 | -1.52 ± 0.2
UGGAAGCAAUAUUACGUUUG | -0.722 ± 0.082 | -0.645 ± 0.13
UGGCAGCAAUAUUACGAAAA | -0.512 ± 0.082 | -0.934 ± 0.1
UGGCAGCAAUAUUACGAAGA | -1.98 ± 0.2 | -1.41 ± 0.2
UGGCAGCAAUAUUACGACCA | -0.399 ± 0.2 | -0.654 ± 0.2
UGGCAGCAAUAUUACGAGAC | -3.74 ± 0.48 | -1.09 ± 0.45
UGGCAGCAAUAUUACGAUAU | -2.5 ± 0.16 | -1.37 ± 0.21
UGGCAGCAAUAUUACGAUCC | -0.653 ± 0.3 | -0.564 ± 0.29
UGGCAGCAAUAUUACGCCCG | -0.568 ± 0.14 | -0.317 ± 0.21
UGGCAGCAAUAUUACGCCUU | -1.65 ± 0.14 | -0.596 ± 0.21
UGGCAGCAAUAUUACGCGAG | -1.96 ± 0.1 | -0.954 ± 0.097
UGGCAGCAAUAUUACGCUAU | -3.89 ± 0.25 | -1.8 ± 0.2
UGGCAGCAAUAUUACGCUUC | -2.18 ± 0.28 | –
UGGCAGCAAUAUUACGGCGU | -1.32 ± 0.12 | -0.678 ± 0.14
UGGCAGCAAUAUUACGGCUG | -3.05 ± 0.33 | -2.38 ± 0.46
